Legend:
[1] = target: T1, oncostatin M (murine OSM) (Mus musculus, UniProt P53347 P53347:23-206); assay: filter; no binding at any concentration tested; conditions: tags: R&D Systems
T1 sequence: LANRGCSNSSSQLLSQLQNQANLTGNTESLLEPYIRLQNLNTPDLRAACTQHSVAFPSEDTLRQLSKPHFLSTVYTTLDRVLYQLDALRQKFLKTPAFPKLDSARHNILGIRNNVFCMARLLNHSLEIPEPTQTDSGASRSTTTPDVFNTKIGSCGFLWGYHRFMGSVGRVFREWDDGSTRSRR

[2] = target: T2, oncostatin M (hOSM, mature) (Homo sapiens, UniProt P13725 SEQ:26-221); assay: filter; SCHMK buffer (1 mM MgCl2, 1 mM CaCl2), 37 C; conditions: tags: expressed in E. coli as GST fusion, GST removed by thrombin cleavage
T2 sequence: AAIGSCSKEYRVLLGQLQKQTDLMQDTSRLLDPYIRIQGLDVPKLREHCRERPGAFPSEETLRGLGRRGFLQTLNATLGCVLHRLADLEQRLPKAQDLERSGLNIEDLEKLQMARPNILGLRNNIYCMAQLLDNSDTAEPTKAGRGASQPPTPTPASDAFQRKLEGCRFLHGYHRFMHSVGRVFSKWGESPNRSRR
Method: Binding assays were carried out as described (Fitzwater and Polisky supra). […] Transcribed RNA was dephosphorylated using bacterial alkaline phosphatase for 30 min at 65° C. Dephosphorylated RNA was then 5' labelled using polynucleotide kinase and γ-^33P ATP. Radiolabelled RNA was gel purified, and incubated at 37° C. for 30 min with a serial dilution of hOSM in SCHMK buffer (45 μl OSM plus 5 μl radiolabelled RNA at 1000 cpm/μl). […] The filters were washed immediately with 5 ml SCHMK buffer, dried and counted in a liquid scintillation counter. […] The data sets were fitted by the non-linear least squares method using an EXEL software package.

[3] = target: T2, oncostatin M (hOSM, mature); assay: competition; blocks OSM binding to gp130-Fc, ELISA; conditions: tags: expressed in E. coli as GST fusion, GST removed by thrombin cleavage
Method: Effect of Point Mutations on the Ability of OSM-GST to Compete with Wild Type OSM Binding to gp130-Fc in an ELISA Nunc Immunoplates (F6 Maxisorp, Life Technologies) were coated overnight (4° C.) with wild type OSM (produced according to Example 7a); 50 µl/well, 1 µg/ml in carbonate/bicarbonate buffer pH 9.4). Plates were washed (×6 in PBS 0.05% tween 20, using Skatron Plate washer), tapped dry and blocked to reduce non-specific binding (200 µl/well, 1% BSA/PBS). Following 1 h incubation (room temperature on a shaking platform) the plates were tapped dry and wild type (wt) or mutant OSM-GST from Example 9b added (50 µl/well, 20–0.002 µg/ml, titrated in 1%BSA/PBS). As a positive control polyclonal anti-human OSM antibody (R&D Systems) was also tested (20–0.02 µg/ml). […] Following a 5 h incubation (room temperature on a shaking platform) the plates were washed (×6) and developed using ELISA Amplification System (Life Technologies) as manufacturer's instructions and the OD measured at 490 nm. On each plate the total binding was determined by gp130-Fc/conjugate and OSM in the presence of 1%BSA/PBS, and non-specific binding by gp130-Fc/conjugate in absence of OSM, or conjugate binding to OSM in absence of gp130-Fc. […]

TNF alpha (biotinylated) = TNF alpha (biotinylated) (UniProt P01375 P01375:77-233); assay: competition; no inhibition of TNFalpha binding to TNFR1; conditions: tags: biotin, NEN; chain copies: 3
Chain of TNF alpha (biotinylated) (P01375 77-233, one chain of several): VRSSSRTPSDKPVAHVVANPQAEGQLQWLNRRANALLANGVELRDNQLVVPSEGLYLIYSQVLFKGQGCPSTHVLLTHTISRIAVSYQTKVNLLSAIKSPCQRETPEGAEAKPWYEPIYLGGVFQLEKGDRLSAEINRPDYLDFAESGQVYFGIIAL
Method: Nunc Immunoplates (F6 Maxisorp, Life Technologies) were coated overnight (4° C.) with sheep anti-human IgG (Serolabs) (50 µl/well, 1 µg/ml in PBS). Plates were washed (×6 in PBS 0.05% tween 20, using Skatron Plate washer), tapped dry and blocked to reduce non-specific binding (200µl/well, 1% BSA/PBS). […] As a positive control an anti-TNFR1 monoclonal antibody (R&D Systems) was included. […] Following a 2 h incubation (room temperature on a shaking platform) the plates were washed (×6) and developed using ELISA Amplification System (Life Technologies) according to the manufacturer's instructions and the OD measured at 490 nm.

B1: ADR58 (ssRNA)
RNA: GGGAGGACGAUGCGGAUCGCCCUGAACCGGCCCAGCAGACUGCUGACGGCACGAUCAGACGACUCGCCCGA
modifications: 2'-F C and U (2'-F pyrimidines), 2'-OH purines
[1]
  binding result: no binding
[2]
  Kd: 7 nM
[3]
  IC50: ~30 pmol/well
TNF alpha (biotinylated)
  binding result: no binding
